Measurements reported in patent US20150086555A1.

B1: TCN-546 (5089_L08) (antibody, V domains shown)
VH: QVQLQQWGAGLLKPSETLSLTCGVYGGSLSDYYWSWIRQPPGKGLEWIGEINHSGGTNYNPSLKRRVTISVDTSKKQFSLKMNSVTAADTAVYYCARGTDPDTEVYCRAGNCAAFDFWGQGTLVTVSS
VL: EIVLTQSPGTLSLSPGERATLSCRASHFVIGRAVAWYQQKPGQAPRLLIYGASSRATGIPDRFSGSGSGTDFTLTISRLETEDFAVFYCQHYGSSPRYAFGQGTKLEIK
B2: TCN-538 (3206_O17) (antibody, V domains shown)
VH: QITLKESGPTLVKPTQTLTLTCVFSGFSLSITGVRVGWIRQPPGKALEWLALISWDDEKHYSPSLQSRLTITKDTSKNQVVLTMTNLDPVDTATYYCARSTDRGHVLRYFGWMLPGDAFDVWGQGTMVTVSS
VL: DIVMTQSPDFLPVSLGERATINCKSSQRVLYSSNNKNYLAWYQLKPGQPPKLIIYWASTRESGVPDRFSGSGSGTEFTLTISSLQAEDVAVYYCQQYYSRPYTFGQGTKLEIK
B3: TCN-543 (5081_G23) (antibody, V domains shown)
VH: QVHLVQSGAEVRKPGDSVKVSCKTSGYTFSTYPVAWVRQVPGQGLEWMGWISTYNGNTNFAQNFQGRVTLTTDTTTNTAYMEVRSLKFDDTAVYYCARVEGSYRDFWNNQNRFDPWGQGTLVTVSS
VL: SYVLTQPPSVSVAPGQTARISCGGSNIGGKSVHWYQQKPGQAPVLVVYDDSGRPSGIPERFSGSNSGDTATLTISRVEAGDEADYFCQVWDNFGGVFGTGTKVTVL
B4: TCN-540 (5060_F05) (antibody, V domains shown)
VH: QVQLVQSGGGVVQPGRSLRLSCAASGFTFSSYAMHWVRQAPGKGLEWVAIISYDGNDQYYTDSVKGRFTISRDSSKVYLQMHRLRPEDTAVYYCAKEFETSGYFHGSFDYWGQGILVTVSS
VL: QSALTQPASVSGSPGQSITISCTGTSSDVGGYNYVSWYQQHPGKAPKLLIYEVTNWPSGVSNRFSGSKSGNTASLTISGLQAEDEADYYCSSYAGSSTWVFGGGTRVTVL
B5: TCN-539 (5056_A08) (antibody, V domains shown)
VH: QVQLVESGGGVVQPGRSLRLSCAASEITFITYAMHWVRQAPGKGLEWVALISDDGSNKFYADSVKGRFTISRDNSKNTLYLQMNSLRAEDTAAYYCAREGVYFDSGTYRGYFDYWGQETLVTVSS
VL: EIVLTQSPATLSLSPGERATLSCRASQSVSSYLAWYQQKPGQAPRLLIYDASNRATGIPARFSGSGSGTDFTLTISSLEPEDFAVYYCQQRSHWPPITFGQGTRLEIK
B6: TCN-527 (5086_C06) (antibody, V domains shown)
VH: QVQLQESGPGLVKPSETLSLNCAVSGGSISNYYWSWIRQPPGKGLEWIGYISYNGRPKYNPSLTSRVTISVDTSKDQFSLELRSVTAADTALYYCARETRFGELLSPYDAFEIWGQGTMVTVSS
VL: DIQMTQSPSSLSASVGDRVTMTCRASQNIRSYLNWYQQRPGTAPKLLIYAASTLHSGVPSRFSGGGSGTDFTLTINNLQPEDFASYYCQQSYDNPQTFGQGTKVEIK
B7: TCN-563 (5237_B21) (antibody, V domains shown)
VH: QVQLAQSGAEVKRPGSSVKVSCTASGGIFRKNAISWVRQAPGQGLEWMGGIIAVFNTANYAQKFQGRVKITADESGNTAYMELSSLRSDDTAVYYCASHPKYFYGSGSYPDFWGQGTLVTVSS
VL: QSALTQPRSVSGSPGQSVTISCTGSSSDVGASNSVSWYQQHPGKAPKLVIYDVTERPSGVPHRFSGSKSGNTASLTVSGLQPEDEADYFCCAYGGKYLVVFGGGTKVTVL
B8: TCN-528 (5087_P17) (antibody, V domains shown)
VH: QVQLVQSGSEVKKPGASVKVSCKASGYTFTNYDINWIRQAPGQGLEWMGWINPNSGTTGSAQRFQGRVTITVDTSITTVYMELSSLRSDDTAIYYCARGRELLRLQHFLTDSQSERRDCFDPWGQGTLVTVSS
VL: DIQMTQSPSSLSASVGDRVTITCRANQDIGIYLNWYQQNPGKVPKLLLHGASSLQGGVPSRFSASGSGTDFTLTIHSLQPEDLATYYCQQSRRLPYTFGQGTRVELK
B9: TCN-522 (3212_I12) (antibody, V domains shown)
VH: QVQLQQWGAGLLKPSETLSLTCTVSGGSLTDYSWNWIRQPPGKGLEWIGDTLHNGYTNYNPSLRGRVSISIDTSKNQVSLRLTSVTAADTALYYCARGSGGYGGFDYFGKLRTWDFWGQGTLVTVSS
VL: DIQLTQSPSSLSASVGDRVTITCRASQGIRNDLGWYQQKPGNAPKRLIFGASSLQSGVPSRFSGSGSGTEFTLTISSLQPEDFATYYCLQHNSYPYTFGQGTKLEIK

biological target: T1, recombinant soluble homotrimeric HA of A/swine/Ontario/01911-2/99 (H4N6) (Influenza A virus A/Swine/Ontario/01911-2/99 (H4N6)); experiment: trimeric HA microarray, transfection supernatant set 5; conditions: remark: other sources report otherwise

| Binder | Trimeric HA Binding: RLU |
| --- | --- |
| B1 | 4610 RLU |
| B2 | 3350 RLU |
| B3 | 2870 RLU |

biological target: T2, recombinant soluble homotrimeric HA of A/northern shoveler/California/HKWF115/07 (H6) (Influenza A virus A/northern shoveler/California/HKWF115/2007(H6N1)); experiment: as above; conditions: remark: other sources report otherwise

| Binder | Trimeric HA Binding: RLU |
| --- | --- |
| B1 | 2430 RLU |
| B2 | 8900 RLU |
| B4 | 2460 RLU |
| B3 | 2510 RLU |
| B5 | 2860 RLU |

biological target: recombinant soluble homotrimeric HA of A/Netherlands/219/03 (H7N7) (Influenza A virus A/Netherlands/219/03(H7N7)); experiment: as above; conditions: remark: other sources report otherwise

| Binder | Trimeric HA Binding: RLU |
| --- | --- |
| B1 | 3740 RLU |
| B2 | 4370 RLU |
| B4 | 4390 RLU |
| B3 | 12900 RLU |
| B5 | 15700 RLU |

biological target: recombinant soluble homotrimeric HA of A/Egypt/3300-NAMRU3/08 (H5N1) (Influenza A virus A/Egypt/3300-NAMRU3/2008(H5N1)); experiment: as above; conditions: remark: other sources report otherwise

| Binder | Trimeric HA Binding: RLU |
| --- | --- |
| B1 | 53000 RLU |
| B2 | 41000 RLU |
| B4 | 15600 RLU |
| B3 | 17600 RLU |

biological target: T3, recombinant soluble homotrimeric HA of A/duck/Yangzhou/02/05 (H8N4) (Influenza A virus A/duck/Yangzhou/02/2005(H8N4)); experiment: as above; conditions: remark: other sources report otherwise

| Binder | Trimeric HA Binding: RLU |
| --- | --- |
| B1 | 11400 RLU |
| B2 | 4060 RLU |
| B4 | 6080 RLU |
| B3 | 13100 RLU |

biological target: recombinant soluble homotrimeric HA of A/Solomon Islands/3/06 (H1N1) (Influenza A virus A/Solomon Islands/3/2006(H1N1)); experiment: as above; conditions: remark: other sources report otherwise

| Binder | Trimeric HA Binding: RLU |
| --- | --- |
| B2 | 1960 RLU |
| B4 | 1180 RLU |
| B3 | 43500 RLU |
| B5 | 871 RLU |

biological target: recombinant soluble homotrimeric HA of A/California/4/09 (H1N1) (Influenza A virus A/California/04/2009(H1N1)); experiment: as above; conditions: remark: other sources report otherwise

| Binder | Trimeric HA Binding: RLU |
| --- | --- |
| B1 | 1080 RLU |
| B2 | 16000 RLU |
| B4 | 984 RLU |
| B3 | 2340 RLU |
| B5 | 1050 RLU |

biological target: recombinant soluble homotrimeric HA of A/Anhui/1/05 (H5N1) (Influenza A virus A/Anhui/1/2005(H5N1)); experiment: as above; conditions: remark: other sources report otherwise

| Binder | Trimeric HA Binding: RLU |
| --- | --- |
| B1 | 33300 RLU |
| B4 | 2190 RLU |
| B3 | 2630 RLU |
| B5 | 3240 RLU |

biological target: recombinant soluble homotrimeric HA of A/chicken/Vietnam/NCVD-016/08 (H5N1) (Influenza A virus A/chicken/Vietnam/NCVD-016/2008(H5N1)); experiment: as above; conditions: remark: other sources report otherwise

| Binder | Trimeric HA Binding: RLU |
| --- | --- |
| B1 | 2940 RLU |
| B2 | 2950 RLU |
| B4 | 1510 RLU |
| B3 | 5880 RLU |
| B5 | 3500 RLU |

biological target: recombinant soluble homotrimeric HA of A/Vietnam/1203/04 (H5N1) (Influenza A virus A/VietNam/1203/2004(H5N1)); experiment: as above; conditions: remark: other sources report otherwise

| Binder | Trimeric HA Binding: RLU |
| --- | --- |
| B1 | 47100 RLU |
| B2 | 52400 RLU |
| B4 | 42500 RLU |
| B3 | 33100 RLU |
| B5 | 53300 RLU |

biological target: recombinant soluble homotrimeric HA of A/Indonesia/5/05 (H5N1) (Influenza A virus A/Indonesia/5/2005(H5N1)); experiment: as above; conditions: remark: other sources report otherwise

| Binder | Trimeric HA Binding: RLU |
| --- | --- |
| B1 | 40900 RLU |
| B2 | 13700 RLU |
| B4 | 2570 RLU |
| B3 | 1830 RLU |
| B5 | 8950 RLU |

biological target: recombinant soluble homotrimeric HA of A/South Carolina/1/18 (H1N1) (Influenza A virus A/South Carolina/1/18 (H1N1)); experiment: as above; conditions: remark: other sources report otherwise

| Binder | Trimeric HA Binding: RLU |
| --- | --- |
| B1 | 955 RLU |
| B2 | 8430 RLU |
| B4 | 1360 RLU |
| B3 | 28300 RLU |
| B5 | 5330 RLU |

biological target: T4, recombinant soluble homotrimeric HA of A/Wisconsin/67/05 (H3N2) (Influenza A virus A/Wisconsin/67/2005(H3N2)); experiment: as above; conditions: remark: other sources report otherwise

| Binder | Trimeric HA Binding: RLU |
| --- | --- |
| B1 | 28500 RLU |
| B4 | 53000 RLU |
| B3 | 37000 RLU |
| B5 | 58800 RLU |

biological target: recombinant soluble homotrimeric HA of A/Hong Kong/156/97 (H5N1) (Influenza A virus A/Hong Kong/156/97 (H5N1)); experiment: as above; conditions: remark: other sources report otherwise

| Binder | Trimeric HA Binding: RLU |
| --- | --- |
| B1 | 1240 RLU |
| B2 | 5170 RLU |
| B4 | 1550 RLU |
| B3 | 1430 RLU |
| B5 | 1450 RLU |

biological target: recombinant soluble homotrimeric HA of A/Japan/305/57 (H2N2) (Influenza A virus A/Japan/305/1957(H2N2)); experiment: as above; conditions: remark: other sources report otherwise

| Binder | Trimeric HA Binding: RLU |
| --- | --- |
| B1 | 1730 RLU |
| B2 | 6620 RLU |
| B4 | 47900 RLU |
| B3 | 2780 RLU |
| B5 | 2560 RLU |

biological target: T1, recombinant soluble homotrimeric HA of …; experiment: trimeric HA microarray, transfection supernatant set 2; conditions: remark: other sources report otherwise

| Binder | Trimeric HA Binding: RLU |
| --- | --- |
| B6 | 30100 RLU |
| B7 | 2250 RLU |
| B8 | 49200 RLU |

biological target: T2, recombinant soluble homotrimeric HA of …; experiment: as above; conditions: remark: other sources report otherwise

| Binder | Trimeric HA Binding: RLU |
| --- | --- |
| B6 | 19300 RLU |
| B7 | 21900 RLU |
| B8 | 28400 RLU |
| B9 | 54400 RLU |

biological target: T3, recombinant soluble homotrimeric HA of …; experiment: as above; conditions: remark: other sources report otherwise

| Binder | Trimeric HA Binding: RLU |
| --- | --- |
| B6 | 17900 RLU |
| B7 | 6280 RLU |
| B8 | 19800 RLU |
| B9 | 1650 RLU |

biological target: recombinant soluble homotrimeric HA of A/Hong Kong/1073/99 (H9N2) (Influenza A virus A/Hong Kong/1073/99 (H9N2)); experiment: as above; conditions: remark: other sources report otherwise

| Binder | Trimeric HA Binding: RLU |
| --- | --- |
| B7 | 49200 RLU |
| B9 | 11800 RLU |

biological target: T4, recombinant soluble homotrimeric HA of …; experiment: as above; conditions: remark: other sources report otherwise

| Binder | Trimeric HA Binding: RLU |
| --- | --- |
| B6 | 35800 RLU |
| B7 | 23700 RLU |
| B8 | 46000 RLU |
